Reference: patent US20110136738A1, “Alternatively Transcribed Genes Associated with Schizophrenia” (University College Dublin, National University of Ireland, …, priority 2008, published 2011)
Entries after “also recorded” stand apart in the source; their conditions may differ.

Test system: isolation reared animals
Assay: Prepulse inhibition of startle in isolation reared animals (ICV midkine)
Assay type: in vivo, male Wistar rats
Details: isolation reared rats, four daily ICV injections of midkine 2 μg/day, compared to vehicle-treated animals
Method: Isolation-reared animals (isolated animals) were housed singly in non-soft bottom cages (22.5 cm×34.5 cm×17 cm), from time of weaning (postnatal day 25, P25) until completion of behavioral testing. A standard 12 hour light/dark cycle was observed and food and water was provided ad libitum. Noise and visual stimuli were kept to an absolute minimum as described previously by Geyer et al., 1993. Socially reared animals (social animals) were housed in groups of 4 from time of weaning until surgical implantation of a guide cannula on P80, there after they were housed singly. […] The startle apparatus consisted of a sound attenuating chamber (54.6×50.8×30.5 cm), a startle platform which measured the startle response, and an audio stimulator, controlled by the startle reflex software (MED Associates Inc.). […] The resulting movement of the rats was measured during 100 ms after startle stimulus onset, and then rectified, amplified and analyzed by computer and the maximal response and average response over the 100 ms period determined. Baseline startle amplitude was determined as the mean response of all startle trials. The percent prepulse inhibition was determined according to the following formula: 100-([startle amplitude at prepulse trial/startle amplitude at startle trial]×100%). The effect on baseline startle amplitude was analyzed by a one-way analysis of variance (ANOVA). […]

B1: midkine (protein, UniProt P21741 21-143, looked up)
Midkine: VAKKKDKVKKGGPGSECAEWAWGPCTPSSKDCGVGFREGTCGAQTQRIRCRVPCNWKKEFGADCKYKFENWGACDGGTGTKVRQGTLKKARYNAQCQETIRVTKPCTPKTKAKAKAKKGKGKD
- prepulse inhibition (PPI) of startle: reverses the deficit observed in prepulse inhibition of startle; also recorded: reversed PPI behavior back to normal
- prepulse inhibition (PPI) of startle (listed as Midkine): reversed the deficit observed in prepulse inhibition of startle; also recorded: reversed PPI behavior back to normal
